Experimental data taken from patent US20250258178A1 (SHIONOGI, published 2025).

T1: human histidine-rich glycoprotein (HRG), purified from human plasma (human, UniProt P04196 19-525)
T1 construct: also called human purified HRG; human purified HRG protein
T1 sequence: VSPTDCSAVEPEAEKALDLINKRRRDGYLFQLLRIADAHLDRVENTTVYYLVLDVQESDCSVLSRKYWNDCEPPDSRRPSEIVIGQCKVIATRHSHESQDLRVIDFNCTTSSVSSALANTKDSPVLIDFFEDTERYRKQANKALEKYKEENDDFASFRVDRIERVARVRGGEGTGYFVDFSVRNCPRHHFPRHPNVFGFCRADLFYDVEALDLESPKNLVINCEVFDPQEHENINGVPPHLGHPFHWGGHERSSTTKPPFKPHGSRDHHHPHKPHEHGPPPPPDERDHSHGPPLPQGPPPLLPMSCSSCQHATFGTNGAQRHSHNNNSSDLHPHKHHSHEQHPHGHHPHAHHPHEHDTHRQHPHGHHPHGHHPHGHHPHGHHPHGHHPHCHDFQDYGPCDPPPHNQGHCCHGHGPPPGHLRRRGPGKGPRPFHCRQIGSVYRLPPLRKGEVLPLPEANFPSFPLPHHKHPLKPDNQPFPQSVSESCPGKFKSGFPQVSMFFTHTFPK


Legend:
[1] = molecular target: T1, human histidine-rich glycoprotein …; assay: sandwich ELISA, HRG captured by solid phase 3-4E
Description: (§1) The capture antibody solution was dispensed at 25 μL per well into 384-well Maxisorp plates (NUNC), and the plates were incubated at room temperature for 3 hours. The plates were washed twice with 120 μL of washing solution per well (0.05% Tween 20-containing PBS). A blocking solution (1% BSA-containing PBS) was dispensed at 30 μL per well, and the plates were incubated at room temperature for 3 hours. The blocking solution was removed followed by dispensing the standard substance for evaluation at 20 μL per well (n=2), and the plates were incubated at room temperature for 3 hours. After washing the plates four times with the washing solution as described above, the solution of each detector antibody was dispensed at 10 μL per well, followed by dispensing a horseradish peroxidase-streptavidin solution (0.05 μg/mL) at 10 μL per well, and the plates were incubated at room temperature for 1 hour. After washing the plates four times with the washing solution as described above, a chromogenic substrate solution (TMB (3,3′,5,5′-tetramethylbenzidine)) was dispensed at 20 μL per well followed by incubating the plates at room temperature for 10 minutes, then a reaction stop solution 0.5 M H₂SO₄ was added at 20 μL/well, and the absorbance at 450 nm was measured.
(§2) The results regarding the evaluation of combinations chosen from 21 types of anti-HRG monoclonal antibodies are shown in Table 1. In Table 1, the absorbance at a wavelength of 450 nm of each combination was determined as follows: less than 1.0 OD: −, 1.0 OD or more and less than 2.0 OD: +, 2.0 OD or more and less than 3.0 OD: ++, and 3.0 OD or more: +++. The combinations of antibodies which could construct a sandwich ELISA system having enough level of absorbance change were 86 sets evaluated as ++ or +++ in Table 1.

[2] = molecular target: T1, human histidine-rich glycoprotein …; assay: sandwich ELISA, HRG captured by solid phase 13-2G
Description: as §1, §2

[3] = molecular target: T1, human histidine-rich glycoprotein …; assay: sandwich ELISA, HRG captured by solid phase 19-1C
Description: as §1, §2

[4] = molecular target: T1, human histidine-rich glycoprotein …; assay: sandwich ELISA, HRG captured by solid phase 31-1H
Description: as §1, §2

[5] = molecular target: T1, human histidine-rich glycoprotein …; assay: sandwich ELISA, HRG captured by solid phase 32-4C
Description: as §1, §2

[6] = molecular target: T1, human histidine-rich glycoprotein …; assay: sandwich ELISA, HRG captured by solid phase 65-3A
Description: as §1, §2

[7] = molecular target: T1, human histidine-rich glycoprotein …; assay: sandwich ELISA, HRG captured by solid phase 69-1A
Description: as §1, §2

[8] = molecular target: T1, human histidine-rich glycoprotein …; assay: sandwich ELISA, HRG captured by solid phase 81-2C
Description: as §1, §2

[9] = molecular target: T1, human histidine-rich glycoprotein …; assay: sandwich ELISA, HRG captured by solid phase 88-2E
Description: as §1, §2

[10] = molecular target: T1, human histidine-rich glycoprotein …; assay: sandwich ELISA, HRG captured by solid phase 50-6C-2A
Description: as §1, §2

[11] = molecular target: T1, human histidine-rich glycoprotein …; assay: sandwich ELISA, HRG captured by solid phase 67-8A-5F
Description: as §1, §2

[12] = molecular target: T1, human histidine-rich glycoprotein …; assay: sandwich ELISA, HRG captured by solid phase 35-3G-10C
Description: as §1, §2

[13] = molecular target: T1, human histidine-rich glycoprotein …; assay: sandwich ELISA, HRG captured by solid phase 94-7A-3C-3D
Description: as §1, §2

[14] = molecular target: T1, human histidine-rich glycoprotein …; assay: sandwich ELISA, HRG captured by solid phase 6-12A-10B-9G
Description: as §1, §2

[15] = molecular target: T1, human histidine-rich glycoprotein …; assay: sandwich ELISA, HRG captured by solid phase 9-1F
Description: as §1, §2

[16] = molecular target: T1, human histidine-rich glycoprotein …; assay: sandwich ELISA, HRG captured by solid phase 14-6F
Description: as §1, §2

[17] = molecular target: T1, human histidine-rich glycoprotein …; assay: sandwich ELISA, HRG captured by solid phase 58-5C
Description: as §1, §2

[18] = molecular target: T1, human histidine-rich glycoprotein …; assay: sandwich ELISA, HRG captured by solid phase 75-2D
Description: as §1, §2

[19] = molecular target: T1, human histidine-rich glycoprotein …; assay: sandwich ELISA, HRG captured by solid phase 93-4C
Description: as §1, §2

[20] = molecular target: T1, human histidine-rich glycoprotein …; assay: sandwich ELISA, HRG captured by solid phase 40-10G
Description: as §1, §2

[21] = molecular target: T1, human histidine-rich glycoprotein …; assay: sandwich ELISA, HRG captured by solid phase 42-10D
Description: as §1, §2

| Binder | absorbance at 450 nm [3] [OD] | absorbance at 450 nm [4] [OD] | absorbance at 450 nm [5] [OD] | absorbance at 450 nm [7] [OD] | absorbance at 450 nm [8] [OD] | absorbance at 450 nm [9] [OD] | absorbance at 450 nm [12] [OD] | absorbance at 450 nm [15] [OD] | absorbance at 450 nm (OD450) [16] [od] | absorbance at 450 nm (OD450) [17] [od] | absorbance at 450 nm (OD450) [18] [od] | absorbance at 450 nm (OD450) [19] [od] | absorbance at 450 nm (OD450) [20] [od] | absorbance at 450 nm [21] [OD] | absorbance at 450 nm (OD450) [1] [od] | absorbance at 450 nm [2] [OD] | absorbance at 450 nm (OD450) [6] [od] | absorbance at 450 nm [10] [OD] | absorbance at 450 nm [11] [OD] | absorbance at 450 nm (OD450) [13] [od] | further results |
| --- | --- | --- | --- | --- | --- | --- | --- | --- | --- | --- | --- | --- | --- | --- | --- | --- | --- | --- | --- | --- | --- |
| anti-HRG monoclonal antibody 3-4E (antibody, V domains shown, Mouse (BALB/c) hybridoma monoclonal, Protein A purified; biotin-labeled when used as detection antibody) VH: QVQLQQSGAELMKPGASVKISCKATGYTFSTFWMEWVKQRPGHGLEWIGEILPGSGNANYNEKFKGKATFTADTSSNTAYMQLSSLTSEDSAVYYCAIHYYGYGFAYWGQGTLVTVSA VL: DNVLTQSPAIMSASLGERVTMTCTASSSVSSSYLHWYQQKPGSSPKLWIYTTSNLASGVPVRFSGSGSGTSYSLTISSMEAEDAATYYCHQYHRSPWTFGGGTKLEIK | < 1 | < 1 | < 1 | < 1 | < 1 | < 1 | < 1 |  |  |  |  |  |  |  |  |  |  |  |  |  | absorbance at 450 nm [1]: < 1 OD; absorbance at 450 nm (OD450) [2]: ≥ 3 od; absorbance at 450 nm [6]: < 1 OD; absorbance at 450 nm (OD450) [10]: ≥ 3 od; absorbance at 450 nm (OD450) [11]: 2 to 3 od; absorbance at 450 nm [13]: < 1 OD; absorbance at 450 nm (OD450) [14]: ≥ 3 od |
| anti-HRG monoclonal antibody 50-6C-2A (antibody, V domains shown, Mouse hybridoma monoclonal) VH: EVQLQESGPGLVKPSQSLSLTCTVTGYSITSDYAWNWIRQFPGNKLEWMGYISYSGSTNYNPSLKSRISITRDTSKNQFFLQLNSVTTEDTATYYCASASYRYAWFAYWGQGTLVTVST VL: DIQMTQTTSSLSASLGDRVTISCRASQDISNYLNWYQQKPDGTVKLLIYYTSRLHSGVPSRFSGSGSGTDYSLTISNLEQEDIGTYFCQQGNTLPTFGGGTKLEIK | < 1 | < 1 | < 1 | < 1 | < 1 | < 1 | < 1 | < 1 | 2 to 3 | 1 to 2 | ≥ 3 | 2 to 3 | 1 to 2 | < 1 | ≥ 3 | < 1 | 1 to 2 | < 1 | < 1 | 1 to 2 | absorbance at 450 nm [14]: < 1 OD |
| anti-HRG monoclonal antibody 6-12A-10B-9G (antibody, V domains shown, Mouse hybridoma monoclonal; biotin-labeled as detection antibody and for bead immobilisation) VH: EVQLQESGPGLVKPSQSLSLTCTVTGYSITSDYAWNWIRQFPGNKLEWMGYISYSGSTNYNPSLRSRISITRDTSKNQFFLQLISVTTEDTATYYCGSASYRYAWFAYWGQGTLVTVSA VL: DIQVTQTTSSLSASLGDRVTISCRASQDISNYLNWYQQKPDGTVKLLIYYTSRLHSGVPSRFSGSGSGTDYSLTISNLEQEDIATYFCQQGNTLPTFGGGTKLEIK | < 1 | < 1 | < 1 | < 1 | < 1 |  | < 1 | < 1 | ≥ 3 | 2 to 3 | ≥ 3 | ≥ 3 | 2 to 3 | < 1 | ≥ 3 | < 1 | 2 to 3 | < 1 | < 1 | 1 to 2 | absorbance at 450 nm [14]: < 1 OD |

Now from value to binder, other results behind:

| absorbance at 450 nm [3] [OD] | absorbance at 450 nm [4] [OD] | absorbance at 450 nm [5] [OD] | absorbance at 450 nm [7] [OD] | absorbance at 450 nm [8] [OD] | absorbance at 450 nm [9] [OD] | absorbance at 450 nm [12] [OD] | absorbance at 450 nm [15] [OD] | absorbance at 450 nm (OD450) [16] [od] | absorbance at 450 nm (OD450) [17] [od] | absorbance at 450 nm (OD450) [18] [od] | absorbance at 450 nm (OD450) [19] [od] | absorbance at 450 nm (OD450) [20] [od] | absorbance at 450 nm [21] [OD] | absorbance at 450 nm (OD450) [1] [od] | absorbance at 450 nm [2] [OD] | absorbance at 450 nm (OD450) [6] [od] | absorbance at 450 nm [10] [OD] | absorbance at 450 nm [11] [OD] | absorbance at 450 nm (OD450) [13] [od] | Binder | further results |
| --- | --- | --- | --- | --- | --- | --- | --- | --- | --- | --- | --- | --- | --- | --- | --- | --- | --- | --- | --- | --- | --- |
| < 1 | < 1 | < 1 | < 1 | < 1 |  | < 1 | < 1 | 1 to 2 | 2 to 3 | 2 to 3 | 2 to 3 | 2 to 3 | < 1 |  |  |  |  |  |  | anti-HRG monoclonal antibody 65-3A (antibody, V domains shown, Mouse hybridoma monoclonal) VH: QVILKESGPGILQPSQTLSLTCSFSGFSLSTSGVGVSWIRQPSGKGLEWLAHIYWDDDKHYNPSLKSRLTISKDTSRNQVFLRITSVDTADTATYYCALGTVGGPWFPYWGQGTLVTVSA VL: DVQMNQSHKFMSTSVGDRVSITCKASQDVSTAVAWYQQKPGQSPKILIYWASIRHTGVPDRFTGSGSGTDYTLTISSVQAEDLTLYYCQQHYSTPWTFGGGTKLEIK | absorbance at 450 nm [1]: < 1 OD; absorbance at 450 nm (OD450) [2]: 2 to 3 od; absorbance at 450 nm [6]: < 1 OD; absorbance at 450 nm (OD450) [10]: 2 to 3 od; absorbance at 450 nm (OD450) [11]: 2 to 3 od; absorbance at 450 nm [13]: < 1 OD; absorbance at 450 nm (OD450) [14]: ≥ 3 od |
| < 1 | < 1 | < 1 | < 1 | < 1 | < 1 | < 1 | < 1 | 2 to 3 | 2 to 3 | ≥ 3 | 2 to 3 | 1 to 2 | < 1 | ≥ 3 | < 1 | 1 to 2 | < 1 | < 1 | 1 to 2 | anti-HRG monoclonal antibody 67-8A-5F (antibody, V domains shown, Mouse hybridoma monoclonal) VH: EVQLQESGPGLVKPSQSLSLTCTVTGYSITSDYAWNWIRQFPGNKLEWMGYISYSGSTSYNPSLKSRISITRDTSKNQFFLQLNSVTTEDTATYYCASASYRYAWFAYWGQGTLVTVSA VL: DIQMTQTTSSLSASLGDRVTISCRASQDISNYLNWYQQKPDGTVKLLIYYTSRLLSGVPSRFSGSGSGTDYSLTISNLEQEDIATYFCQQGNTLPTFGGGTKLEIK | absorbance at 450 nm [14]: < 1 OD |
